Values quoted from earlier work, collected in article PMC9066409.
pKd: −log10 of the molar value. Like-named read-outs stand apart in the source and are kept apart here.

Assays:
[1] = target: FGFR1 (Homo sapiens) (UniProt P11362)
[2] = target: FGFR1 (Homo sapiens) (UniProt P11362); remark: listed apart in the source

Sequence of UniProt P11362 (P11362 22-822): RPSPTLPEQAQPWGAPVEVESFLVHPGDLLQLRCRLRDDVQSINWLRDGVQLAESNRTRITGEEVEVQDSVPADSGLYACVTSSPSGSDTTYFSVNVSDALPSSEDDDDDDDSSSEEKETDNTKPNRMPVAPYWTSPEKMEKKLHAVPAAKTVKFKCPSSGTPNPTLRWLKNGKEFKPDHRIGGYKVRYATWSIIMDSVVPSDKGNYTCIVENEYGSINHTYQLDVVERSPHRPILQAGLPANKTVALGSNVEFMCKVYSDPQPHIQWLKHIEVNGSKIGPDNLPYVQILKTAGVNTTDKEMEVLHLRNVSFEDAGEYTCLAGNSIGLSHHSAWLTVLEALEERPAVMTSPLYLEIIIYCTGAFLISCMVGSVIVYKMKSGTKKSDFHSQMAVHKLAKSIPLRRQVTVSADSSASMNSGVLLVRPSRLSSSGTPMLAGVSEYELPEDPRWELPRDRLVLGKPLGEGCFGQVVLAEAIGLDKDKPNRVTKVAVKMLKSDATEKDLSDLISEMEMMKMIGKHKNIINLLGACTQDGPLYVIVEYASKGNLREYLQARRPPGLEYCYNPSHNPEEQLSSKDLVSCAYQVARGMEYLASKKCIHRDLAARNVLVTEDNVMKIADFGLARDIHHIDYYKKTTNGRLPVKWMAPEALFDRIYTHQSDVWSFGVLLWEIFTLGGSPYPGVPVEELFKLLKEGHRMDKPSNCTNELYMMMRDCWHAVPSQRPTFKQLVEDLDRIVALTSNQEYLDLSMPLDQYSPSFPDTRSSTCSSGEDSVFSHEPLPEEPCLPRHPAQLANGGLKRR

Row | pKd [1] | pKd [2] | Substance
1 | 6.87 |  | FGF1 (from UniProt P05230)
2 |  | 7.21 | FGF2 (from UniProt P09038)
